US20080175935A1, “Method to Treat Skin Conditions with Narcissus Tazetta Bulb Extract” (NuSkin International, Inc., priority 2004, published 2008)

System: arNOX
Test: arNOX assay: ferricytochrome c reduction (superoxide production) in sera
Type: biochemical, human
Conditions: for Rate of reduction of ferricytochrome c, +Proteinase K: pooled serum
Description: Reduction of ferric cytochrome c by superoxide was employed as a standard measure of superoxide formation (Mayo, L. A. and Cumutte, J. (1990) Meth. Enzyme. 186, 567-575. 7. Butler, J, Koppenol, W. H. and Margollash, E. (1982) J. Biol. Chem. 257, 10747).
Assays of ferric cytochrome c reduction in sera compared 53 samples from young (20 to 40 y) and 65 samples from aged (80 to 100) individuals. […]
Measurement of arNOX activity based on ferricytochrome c reduction as a measure of superoxide production were taken. The rate of reduction of ferricytochrome c was determined from the increase in absorbance at 550 nm with 540 nm as reference. This is a widely accepted method when coupled to superoxide dismutase inhibition for the measurement of superoxide generation. The assay consists of 150 μl (2 mg/ml) of oxidized ferricytochrome c solution and 150 μl serum or 40 μl buffy coats in PBSG buffer (8.06 g NaCl, 0.2 g KCl, 0.18 g Na2HPO4, 0.26 g KH2PO4, 0.13 g CaCl2, 0.1 g MgCl2, 1.35 g glucose dissolved in 1000 ml deionized water, adjusted to pH 7.4, filtered and stored at 4° C.). Rates were determined using a SLM Aminco DW-2000 spectrophotometer (Milton Roy, Rochester, N.Y., USA) in the dual wave length mode of operation with continuous measurements over 1 min every 1.5 min. After 45 min, test compound was added and the reaction was continued for 45 min. A millimolar extinction coefficient of 19.1 cm^−1 was used for reduced ferricytochrome c. (D. M. Morré, F. Guo and D. J. Morré, 2003, Mol. Cell. Biochem. 254: […]).

B1: Proteinase K: protease used to digest sera (protein, UniProt P06873 106-384, looked up)
Proteinase K: AAQTNAPWGLARISSTSPGTSTYYYDESAGQGSCVYVIDTGIEASHPEFEGRAQMVKTYYYSSRDGNGHGTHCAGTVGSRTYGVAKKTQLFGVKVLDDNGSGQYSTIIAGMDFVASDKNNRNCPKGVVASLSLGGGYSSSVNSAAARLQSSGVMVAVAAGNNNADARNYSPASEPSVCTVGASDRYDRRSSFSNYGSVLDIFGPGTSILSTWIGGSTRSISGTSMATPHVAGLAAYLMTLGKTTAASACRYIADTANKGDLSNIPFGTVNLLAYNNYQA
- Rate of reduction of ferricytochrome c, +Proteinase K (35-45 males): 0.27 ± 0.16 nmoles min^−1 mi serum^−1
- Rate of reduction of ferricytochrome c, +Proteinase K (75-85 females): 1.0 ± 0.18 nmoles min^−1 mi serum^−1
- Rate of reduction of ferricytochrome c, +Proteinase K (75-85 males): 0.72 ± 0.14 nmoles min^−1 mi serum^−1
- Rate of reduction of ferricytochrome c, +Proteinase K (<35 y females): 0.26 ± 0.17 nmoles min^−1 mi serum^−1
- Rate of reduction of ferricytochrome c, +Proteinase K (>90 females): 0.94 ± 0.24 nmoles min^−1 mi serum^−1
- change in the rate of arNOX following proteinase K digestion (sera): no significant decrease
- Superoxide production (reduction of ferricytochrome c), without superoxide dismutase (sera of aged (80-98 y) individuals, after proteinase K, n = 10): 0.6 ± 0.2 Nmoles/min/mi/sera
